Data: FireProtDB (doi:10.1021/bi034132r)
“And” between values parts separate entries of the source, which are not always exact repeats. Equal entries are not always repeated.

Conditions: Saccharomyces cerevisiae (strain ATCC 204508 / S288c), pH 7, 25 °C, GdnHCl, CD, phosphate 0.1 M, reversible: yes

Cytochrome c isoform 1 wild type, P00044, sequence (P00044 whole entry, canonical isoform): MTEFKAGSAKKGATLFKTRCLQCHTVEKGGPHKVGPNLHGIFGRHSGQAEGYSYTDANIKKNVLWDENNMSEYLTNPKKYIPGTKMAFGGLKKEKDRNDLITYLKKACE
Cytochrome c isoform 1 H39Y, P00044, sequence (P00044 whole entry H39Y, canonical isoform): as the sequence (P00044 whole entry, canonical isoform) above, with H39Y counted along it
Cytochrome c isoform 1 H32Y, P00044, sequence (P00044 whole entry H32Y, canonical isoform): as the sequence (P00044 whole entry, canonical isoform) above, with H32Y counted along it

Substance | ddG of mutation (higher = less stable) (structure 1YCC) | denaturant m value (structure 1YCC) | denaturant midpoint (higher = more stable) (structure 1YCC) | unfolding free energy (structure 1YCC) | denaturant m value | denaturant midpoint (higher = more stable) [M] | unfolding free energy
Cytochrome c isoform 1 H32Y, P00044 | 1.82 kcal/mol and 2.1 kcal/mol | 2.41 kcal/mol/M and 2.39 kcal/mol/M | 1.4 M and 1.1 M | 3.54 kcal/mol and 3.2 kcal/mol | – | – | –
Cytochrome c isoform 1 H39Y, P00044 | 0.6 kcal/mol | 2.87 kcal/mol/M | 1.6 M | 4.71 kcal/mol | – | – | –
Cytochrome c isoform 1 wild type, P00044 | – | – | – | – | 2.96 kcal/mol/M and 2.94 kcal/mol/M | 1.8 | 5.35 kcal/mol and 5.31 kcal/mol
